Reference: patent EP4613280A1 (Plantibodies, dated 2025)

Target: T1, murine PD-1 receptor (mouse, UniProt Q02242 25-288)
T1 construct: Endogenous protein in tissue lysates, detected as a 50 kDa band on a western blot; also called mouse PD-1; mouse PD-1 receptor
T1 sequence (looked up): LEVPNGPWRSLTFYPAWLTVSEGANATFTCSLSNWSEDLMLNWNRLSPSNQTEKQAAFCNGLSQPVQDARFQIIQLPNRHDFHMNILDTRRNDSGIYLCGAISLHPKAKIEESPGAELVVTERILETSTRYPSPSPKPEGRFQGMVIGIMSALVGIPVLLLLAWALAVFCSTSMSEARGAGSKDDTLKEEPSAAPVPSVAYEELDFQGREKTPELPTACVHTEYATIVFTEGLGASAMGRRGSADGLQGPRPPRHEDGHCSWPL
Assay: western blot of mouse liver and lung lysates probed with nivolumab

B1: human recombinant Nivolumab (Thermofischer MA5-41974) (antibody, human IgG4 S228P, kappa, V domains shown)
VH: QVQLVESGGGVVQPGRSLRLDCKASGITFSNSGMHWVRQAPGKGLEWVAVIWYDGSKRYYADSVKGRFTISRDNSKNTLFLQMNSLRAEDTAVYYCATNDDYWGQGTLVTVSS
VL: EIVLTQSPATLSLSPGERATLSCRASQSVSSYLAWYQQKPGQAPRLLIYDASNRATGIPARFSGSGSGTDFTLTISSLEPEDFAVYYCQQSSNWPRTFGQGTKVEIKR
notes: Bought reagent, described as a fully humanized monoclonal antibody produced in mammalian cells such as HEK293; also called human Nivolumab; mammalian cell produced nivolumab (anti-PD1)
  binding result: binds
